The values below come from paper doi:10.1101/2022.01.31.478542.

Data set [1] is described as follows: turbidity. The conditions noted are these: other: turbidity (light scattering at 340 nm) of cell-free assembly.
Data set [2] concerns P04590. The experiment in a line: turbidity. The settings on record: other: turbidity (light scattering at 340 nm) of cell-free assembly.

In the case of “HIV-2 CA-NC protein (Gag amino acids 136-431), CA A41D mutant”, in data set [1], the “fold lower turbidity (A340 nm) at 120 min than WT” value (from here on “fold lower turbidity (A340 nm)”) was 25-fold (A41D) lower than that of WT and the “normalized A340 nm (turbidity), whole time course” value is reported as “low turbidity readings (i.e., < 0.36)”.
“HIV-2 CA-NC protein (Gag amino acids 136-431), CA L19A mutant” displayed a normalized A340 nm (turbidity) in data set [1] of 1.77.
As for “HIV-2 CA-NC protein (Gag amino acids 136-431), wild type”, in data set [2], the “normalized A340 nm (turbidity), peak at 20 min” value is reported as “peaked at 20 min (i.e., 1.27)” and the “normalized A340 nm (turbidity), stable value after the peak” value is on record as “remained stable (i.e., 0.56)”.
In the case of “HIV-2 CA-NC protein (Gag amino acids 136-431), CA N127E mutant”, the “fold lower turbidity (A340 nm)” value in data set [1] is 7.0-fold (i.e., G38M, N127E, I152A).
Turning to “HIV-2 CA-NC protein (Gag amino acids 136-431), CA G38M mutant”, in data set [1], the “fold lower turbidity (A340 nm)” value is 7.0-fold (i.e., G38M, N127E, I152A) and the normalized A340 nm (turbidity) amounted to 0.34.
With “HIV-2 CA-NC protein (Gag amino acids 136-431), CA I152A mutant”, in data set [1], the “fold lower turbidity (A340 nm)” value was 7.0-fold (i.e., G38M, N127E, I152A) and the normalized A340 nm (turbidity) worked out at 0.65.
